# T1: FcγRIIa-R131 (CD32, arginine at position 131), on cells (human, UniProt P12318 34-317)
# T1 construct: whole, on cells; A database entry may carry H at that site, so the arginine must be set by hand; also called FcγRIIa-R131 allotype; IIA1.6 FcγRIIa-R131 transfectants
# T1 sequence (looked up): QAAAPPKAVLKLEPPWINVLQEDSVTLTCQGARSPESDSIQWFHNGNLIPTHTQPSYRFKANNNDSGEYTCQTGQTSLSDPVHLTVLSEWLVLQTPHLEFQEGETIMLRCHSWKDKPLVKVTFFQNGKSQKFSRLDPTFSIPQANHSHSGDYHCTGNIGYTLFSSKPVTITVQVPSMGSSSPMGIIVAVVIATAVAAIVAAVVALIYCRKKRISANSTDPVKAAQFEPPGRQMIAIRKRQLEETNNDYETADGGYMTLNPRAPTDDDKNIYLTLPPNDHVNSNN
# T2: CD20 (human, UniProt P11836)
# T2 construct: full length, on cells; also called CD20 on cells; Raji cells expressing CD20
# T2 sequence (membrane protein on cells, looked up): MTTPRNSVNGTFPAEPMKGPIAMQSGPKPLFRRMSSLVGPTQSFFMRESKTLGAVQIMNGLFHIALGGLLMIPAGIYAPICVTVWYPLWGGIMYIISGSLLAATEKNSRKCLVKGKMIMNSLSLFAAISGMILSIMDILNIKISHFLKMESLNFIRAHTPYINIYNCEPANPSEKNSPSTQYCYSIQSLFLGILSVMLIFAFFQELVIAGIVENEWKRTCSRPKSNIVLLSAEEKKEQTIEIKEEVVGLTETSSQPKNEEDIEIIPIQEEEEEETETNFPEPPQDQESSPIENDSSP
# B1: human monoclonal antibody MDE-8 (whole IgG) (antibody, V domains shown)
# VH: QVHLVESGGGVVQPGRSLRLSCAASGFTFSSYGMHWVRQAPGKGLEWVAVIWYDGSNYYYTDSVKGRFTISRDNSKNTLYLQMNSLRAEDTAVYYCARDLGAAASDYWGQGTLVTVSS
# VL: AIQLTQSPSSLSASVGDRVTITCRASQGINSALAWYQQKPGKAPKLLIYDASSLESGVPSRFSGSGSGTDFTLTISSLQPEDFATYYCQQFNSYPHTFGQGTKLEIK
# notes: Hybridoma-derived fully human IgG, kappa from HuMab HCo7 mice; a human IgG1 mAb served as its isotype control; also called HuMAb MDE-8; MDE-8 IgG
# Columns and labels:
# [1] = target: T3, FcγRI (CD64), on cells (UniProt P12314 16-374, limits assumed); experiment: cell-based or functional assay
# T3 construct: whole, on cells
# [2] = target: T3, FcγRI (CD64), on cells; experiment: flow cytometry on CD64-expressing cells, mean fluorescence intensity; concentration not given
# [3] = target: T1, FcγRIIa-R131 (CD32, arginine at …); experiment: flow cytometry on transfected cells, mean fluorescence intensity; antibody concentration not given
# [4] = target: T4, FcαR (CD89), on transfected IIA1.6 cells (UniProt P24071 22-287, limits assumed); experiment: flow cytometry on CD89-transfected cells, mean fluorescence intensity; concentration not given
# T4 construct: whole, on cells; also called Fcα receptor; FcαRI
# [5] = target: T5, FcγRIIIa (CD16), on cells (UniProt P08637 17-254, limits assumed); experiment: flow cytometry on CD16A-expressing cells, mean fluorescence intensity; concentration not given
# T5 construct: whole, on cells; also called CD16A
# [6] = target: T2, CD20; experiment: flow cytometry on CD20-expressing cells, mean fluorescence intensity; concentration not given
# T3 sequence (P12314 16-374 limits assumed): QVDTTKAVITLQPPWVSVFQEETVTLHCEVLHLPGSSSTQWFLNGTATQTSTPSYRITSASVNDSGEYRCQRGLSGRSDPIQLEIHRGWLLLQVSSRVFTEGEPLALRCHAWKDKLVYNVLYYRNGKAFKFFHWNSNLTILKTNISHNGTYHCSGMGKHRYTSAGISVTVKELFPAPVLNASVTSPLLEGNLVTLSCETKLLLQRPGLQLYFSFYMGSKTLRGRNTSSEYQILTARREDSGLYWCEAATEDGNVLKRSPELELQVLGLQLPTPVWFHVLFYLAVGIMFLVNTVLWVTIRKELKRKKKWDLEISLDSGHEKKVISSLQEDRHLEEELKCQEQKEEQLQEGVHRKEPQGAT
# T4 sequence (P24071 22-287 limits assumed): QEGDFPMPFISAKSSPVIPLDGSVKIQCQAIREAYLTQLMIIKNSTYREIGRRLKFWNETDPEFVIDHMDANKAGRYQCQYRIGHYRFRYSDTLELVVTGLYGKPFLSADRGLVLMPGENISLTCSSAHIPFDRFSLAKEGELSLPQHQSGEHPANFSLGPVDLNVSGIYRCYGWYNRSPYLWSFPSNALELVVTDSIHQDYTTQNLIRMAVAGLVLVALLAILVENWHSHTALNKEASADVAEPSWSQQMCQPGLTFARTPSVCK
# T5 sequence (P08637 17-254 limits assumed): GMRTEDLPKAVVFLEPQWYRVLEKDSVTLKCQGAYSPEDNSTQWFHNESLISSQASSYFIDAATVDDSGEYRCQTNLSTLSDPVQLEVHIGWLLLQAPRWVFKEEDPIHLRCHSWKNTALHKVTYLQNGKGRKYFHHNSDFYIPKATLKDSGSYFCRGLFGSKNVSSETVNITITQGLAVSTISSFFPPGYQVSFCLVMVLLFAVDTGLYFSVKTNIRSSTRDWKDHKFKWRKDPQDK
Molecule,reduction of FcγRI membrane expression [1],binding result [2],binding result [3],binding result [4],binding result [5],binding result [6]
humanized CD64 mAb H22 (antibody),60%,,,,,
B1,,no binding,binds,no binding,no binding,no binding
